Test [1] concerns the target SARS-CoV-2 Receptor Binding Domain (RBD) protein (SARS-CoV-2). Briefly: SPR (Carterra LSA), scFv captured via anti-V5, RBD as analyte, 1:1 fit.
Test [2] has the same target. Briefly: SPR (Carterra LSA), scFv captured via anti-V5, RBD as analyte.
For test [3] the target is unchanged.

Read-outs that look alike come from different tables or passages of the source.

B1: COVID19_P24_F11 (scFv, V domains shown)
VH: EVQLLESGGGLVQPGGSLRLSCAASGFTFSGSAMHWVRQAPGKGLEYVSAISRNGGTTYYADSVKGRFTISRDNSKNTLYLQMNSLRAEDTAVYYCAKDGTLITTTLDYWGQGTLVTVSS
VL: DIQMTQSPSSLSASVGDRVTITCRASQSIGYYLNWYQQKPGKAPKLLIYAASSLQSGVPSRFSGSGSGTDFTLTISSLQPEDFATYYCQQSYTTPLTFGGGTKVEIKR
For B1, in test [1], the dissociation constant (Kd) (usually the constant that tells how readily two partners part at equilibrium) was found to be 0.46 nM; the dissociation rate constant (koff) (as a rule, a measure of how fast the partners let go of each other) was 0.00028 s⁻¹; the kon (usually the second-order rate constant of association) was determined as 616000 M⁻¹ s⁻¹. This molecule also displayed a Kd in test [2] below 50 nM.

B2: COVID19_P11_G03 (scFv, V domains shown)
VH: QVQLVQSGAEVKKPGASVKVSCKASGYTFTSYEINWVRQAPGQGLEWMGIINPSDGSSTYAQKFQGRVTMTRDTSTSTVYMELSSLRSEDTAVYYCARDRGYSYDHDQIYYYYGMDVWGQGTTVTVSS
VL: DIQMTQSPSSLSASVGDRVTITCRVSQGISSYLNWYQQKPGKAPKLLIYAASILQSGVPSRFSGSGSGTDFTLTISSLQPEDFATYYCQQGYSTPFTFGPGTKVDIKR
Take B2: in test [1], the Kd was 6.45 nM, the dissociation rate constant (koff) was 0.00064 s⁻¹ and the kon came to 99000 M⁻¹ s⁻¹. In addition, the Kd in test [2] was below 50 nM.

B3: COVID19_P24_A11 (scFv, V domains shown)
VH: QVQLVQSGAEVKKPGASVKVSCKASGYTFTENEMHWVRQAPGQGLEWMGIINPSGGSTSYAQKFQGRVTMTRDTSTSTVYMELSSLRSEDTAVYYCARDLMDIVVVPWLGGMDVWGQGTTVTVSS
VL: DIQMTQSPSSLSASVGDRVTITCRASQAITNYLAWYQQKPGKAPKLLIYAASSLQSGVPSRFSGSGSGTDFTLTISSLQPEDFATYYCQQYYSYPPTFGQGTKLEIKR
As for B3, in test [1], the Kd was determined as 1.95 nM, the off-rate constant (koff) was determined as 0.000308 s⁻¹ and the on-rate (kon) was determined as 158000 M⁻¹ s⁻¹. Also, the dissociation constant (Kd) in test [2] was below 50 nM.

B4: COVID19_P11_H02 (scFv, V domains shown)
VH: QVQLVQSGAEVKKPGASVKVSCKASGGTFTSYHMHWVRQAPGQGLEWMGWMNPNSGNTGYALKFQGRVTMTRDTSTSTVYMELSSLRSEDTAVYYCASFERFGELVPETFDYWGQGTLVTVSS
VL: DIQMTQSPSSLSASVGDRVTITCRASQGIRNDLAWYQQKPGKAPKLLIYAASSLQSGVPSRFSGSGSGTDFTLTISSLQPEDFATYYCQQSYSTPPTFGQGTKLEIKR
Regarding B4, in test [1], the Kd amounted to 2.2 nM, the koff was 0.00071 s⁻¹ and the on-rate (kon) stood at 320000 M⁻¹ s⁻¹. This molecule yielded a dissociation constant Kd in test [2] below 50 nM.

B5: COVID19_P11_D12 (scFv, V domains shown)
VH: QVQLVQSGAEVKKPGASVKVSCKASGYTFTENEMHWVRQAPGQGLEWMGIINPSGGSTSYAQKFQGRVTMTRDTSTSTVYMELSSLRSEDTAVYYCAKTRYGGNSRSRYYYYGMDVWGQGTTVTVSS
VL: DIQMTQSPSSLSASVGDRVTITCRASQHISSYLNWYQQKPGKAPKLLIYAASALQSGVPSRFSGSGSGTDFTLTISSLQPEDFATYYCQQGYGTPYTFGQGTKVEIKR
For the molecule B5, in test [1], the Kd was 4.3 nM, the koff came to 0.00034 s⁻¹ and the on-rate (kon) is 79000 M⁻¹ s⁻¹. Further, the Kd in test [2] is below 50 nM.

B6: COVID19_P24_H04 (scFv, V domains shown)
VH: QVQLVQSGAEVKKPGASVKVSCKASGYTFTDYHMHWVRQAPGQGLEWMGWMNPNSGNTSYAQKFQGRVTMTRDTSTSTVYMELSSLRSEDTAVYYCAGMGMGRDGYNSRAFDIWGQGTMVTVSS
VL: DIQMTQSPSSLSASVGDRVTITCRASQSISTYLNWYQQKPGKAPKLLIYAASTLQSGVPSRFSGSGSGTDFTLTISSLQPEDFATYYCQQSYSMPLTFGQGTKVEIKR
In test [1], B6 returned a dissociation constant Kd of 4 nM, a koff of 0.00068 s⁻¹ and a kon of 170000 M⁻¹ s⁻¹. This molecule also returned a Kd in test [2] below 50 nM.

B7: COVID19_P23_F10 (scFv, V domains shown)
VH: QVQLVQSGAEVKKPGASVKVSCKASGDTFSNYGISWVRQAPGQGLEWMGWMNPNSGGTNYAQKFQGRVTMTRDTSTSTVYMELSSLRSEDTAVYYCAIGTTVVTPFGYWGQGTLVNVSS
VL: EIVMTQSPATLSVSPGERATLSCRASESVSSRYLAWYQQKPGQAPRLLIYGASTRATGIPARFSGSGSGTEFTLTISSLQSEDFAVYYCQQGYKNPPTFGQGTKVEIKR
In test [1], B7 showed a Kd of 7.86 nM, an off-rate (koff) of 0.00077 s⁻¹ and a kon of 98000 M⁻¹ s⁻¹. The Kd in test [2] was below 50 nM.

B8: COVID19_P24_A09 (scFv, V domains shown)
VH: QVQLVQSGAEVKKPGASVKVSCKASGYTFTDYYMQWVRQAPGQGLEWMGWIDPHSGATNYAHSFQGRVTMTRDTSTSTVYMELSSLRSEDTAVYYCARLEGGSYWTGYFDLWGRGTLVTVSS
VL: EIVMTQSPATLSVSPGERATLSCRASQSVSSNYLAWYQQKPGQAPRLLIYAVSSRATGIPARFSGSGSGTEFTLTISSLQSEDFAVYYCQQYGSSPLTFGGGTKVEIKR
On to B8, for which, in test [1], the Kd was found to be 1.51 nM, the koff amounted to 0.000229 s⁻¹ and the on-rate (kon) is 152000 M⁻¹ s⁻¹. The molecule further returned a Kd in test [2] below 50 nM.

B9: COVID19_P23_G10 (scFv, V domains shown)
VH: QVQLVQSGAEVKKPGSSVKVSCKASGYTFTDYYIQWVRQAPGQGLEWMGWINPNSGGPNYAQKFQGRVTITADESTSTAYMELSSLRSEDTAVYYCARVDYGDYGRLEDYWGQGTLVTVSS
VL: DIQMTQSPSSLSASVGDRVTITCRASQSIYSWLAWYQQKPGKAPKLLIYDASSLESGVPSRFSGSGSGTDFTLTISSLQPEDFATYYCQQLNSYPYTFGQGTKVEIKR
In the case of B9, in test [1], the dissociation constant (Kd) was found to be 0.37 nM, the off-rate constant (koff) was determined as 5.7e-05 s⁻¹ and the kon was found to be 154000 M⁻¹ s⁻¹. For the same molecule, in test [2], the Kd was below 50 nM.

B10: COVID19_P24_G09 (scFv, V domains shown)
VH: QVQLVQSGAEVKKPGASVKVSCKASGYTFTRYYIHWVRQAPGQGLEWMGIINPSGGSTTYAQKFQGRVTMTRDTSTSTVYMELSSLRSEDTAVYYCAKGAPHDYIWGSYRPDAFDIWGQGTMVTVSS
VL: DIQMTQSPSSLSASVGDRVTITCRASENIDSWLAWYQQKPGKAPKLLIYEASTLESGVPSRFSGSGSGTDFTLTISSLQPEDFATYYCHQYLSSPETFGQGTKVEIKR
In test [1], B10 displayed a Kd of 1.56 nM, a koff of 0.000512 s⁻¹ and an on-rate constant (kon) of 329000 M⁻¹ s⁻¹. For the same molecule, the Kd in test [2] was below 50 nM.

B11: COVID19_P24_C06 (scFv, V domains shown)
VH: QVQLVQSGAEVKKPGASVKVSCKASGYIFTSYPIHWVRQAPGQGLEWMGWMNPNSGNTGYAQKFQGRVTMTRDTSTSTVYMELSSLRSEDTAVYYCARDRGSYDTDAFDIWGQGTMVTVSS
VL: DIQMTQSPSSLSASVGDRVTITCRASQDISNYLNWYQQKPGKAPKLLIYAASNLQSGVPSRFSGSGSGTDFTLTISSLQPEDFATYYCQQANSFPSTFGQGTKLEIKR
As for B11, in test [1], the Kd is 0.3 nM, the koff amounted to 5.7e-05 s⁻¹ and the kon was found to be 228000 M⁻¹ s⁻¹. This molecule had a Kd in test [2] below 50 nM.

B12: COVID19_P24_B09 (scFv, V domains shown)
VH: QVQLVQSGAEVKKPGSSVYVSCKASGYTFTSYGISWVRQAPGQGLEWMGGIIPMFGTTNYAQKFQGRVTITADKSTSTAYMELSSLRSEDTAVYYCARDRGDTIDYWGQGTLVTVSS
VL: DIQMTQSPSSLSASVGDRVTITCRASQGISNNLNWYQQKPGKAPKLLIYAASSLESGVPSRFSGSGSGTDFTLTISSLQPEDFATYYCQQGNGFPLTFGPGTKVDIKR
In test [1], B12 gave a Kd of 27.5 nM, a koff of 0.0139 s⁻¹ and a kon of 508000 M⁻¹ s⁻¹. This molecule also returned a Kd in test [2] below 50 nM.

B13: COVID19_P11_H07 (scFv, V domains shown)
VH: QVQLVQSGAEVKKPGASVKVSCKASGYTFTSYDINWVRQAPGQGLEWMGWMNSNSGSTGYAQKFQGRVTMTRDTSTSTVYMELSSLRSEDTAVYYCARGWMAYDAFDIWGQGTMVTVSS
VL: DIQMTQSPSSLSASVGDRVTITCQASQSIYNYLNWYQQKPGKAPKLLIYDASNLETGVPSRFSGSGSGTDFTLTISSLQPEDFATYYCQQAISFPLTFGGGTKVEIKR
Regarding B13, the Kd in test [3] was below 50 nM. In test [1], this molecule returned a dissociation constant Kd of 0.5 nM, a koff of 5.7e-05 s⁻¹ and a kon of 110000 M⁻¹ s⁻¹.

B14: COVID19_P24_H06 (scFv, V domains shown)
VH: EVQLLESGGGLVQPGGSLRLSCAASGFSFSNYDMHWVRQAPGKGLEWVAVISYDGGFKLYADSVKGRFTISRDNAKNSLYLRMNSLRSEDTAVYYCARGQVRGSGPQVVVMDVWGKGTTVTVSS
VL: DIQMTQSPSSLSASVGDRVTITCQASQGIRNDLGWYQQKPGKAPKLLIYDASRLQSGVPSRFSGSGSGTDFTLTISSLQPEDFATYYCQQYYSTPPLTFGQGTKVEIKR
In test [1], B14 showed a dissociation constant (Kd) of 0.5 nM, a koff of 5.7e-05 s⁻¹ and an on-rate (kon) of 120000 M⁻¹ s⁻¹. In test [2], this molecule gave a Kd below 50 nM.

B15: COVID19_P24_D09 (scFv, V domains shown)
VH: QVQLVQSGAEVKKPGASVKVSCKASGGTFSSYAISWVRQAPGQGLEWMGIVNPSSGSTTYAQKFQGRVTMTRDTSTSTVYMELSSLRSEDTAVYYCARVRGSAAIAMMDVWGQGTTVTVSS
VL: DIQMTQSPSSLSASVGDRVTITCRASQDIRNELGWYQQKPGKAPKLLIYAASSLQSGVPSRFSGSGSGTDFTLTISSLQPEDFATYYCQQSYSTPPWTFGQGTKLEIKR
B15: in test [1], the dissociation constant (Kd) is 0.5 nM, the dissociation rate constant (koff) turned out to be 5.7e-05 s⁻¹ and the association rate constant (kon) amounted to 114000 M⁻¹ s⁻¹. For the same molecule, the Kd in test [2] was below 50 nM.

B16: COVID19_P24_C10 (scFv, V domains shown)
VH: QVQLVQSGAEVKKPGASVKVSCKASGYTFTENEMHWVRQAPGQGLEWMGIINPSGGSTSYAQKFQGRVTMTRDTSTSTVYMELSSLRSEDTAVYYCARDSGVDTATLRYYYYGMDVWGQGTTVTVSS
VL: DIQMTQSPSSLSASVGDRVTITCQASQDISKYLNWYQQKPGKAPKLLIYGASTLSDGVPSRFSGSGSGTDFTLTISSLQPEDFATYYCQQGYSTPYSFGQGTKLEIKR
In test [1], B16 came in with an equilibrium dissociation constant (Kd) of 0.88 nM, a dissociation rate constant (koff) of 0.000487 s⁻¹ and an on-rate (kon) of 553000 M⁻¹ s⁻¹. In test [2], this molecule registered a Kd below 50 nM.

B17: COVID19_P11_D08 (scFv, V domains shown)
VH: QVQLVQSGAEVKKPGASVKVSCKASGYTFTENEMHWVRQAPGQGLEWMGIINPSGGSTSYAQKFQGRVTMTRDTSTSTVYMELSSLRSEDTAVYYCARDSGVDTATLRYYYYGMDVWGQGTTVTVSS
VL: DIQMTQSPSSLSASVGDRVTITCQASQDISKYLNWYQQKPGKAPKLLIYGASTLSDGVPSRFSGSGSGTDFTLTISSLQPEDFATYYCQQGYSTPYSFGQGTKLEIKR
In test [1], B17 displayed an equilibrium dissociation constant (Kd) of 4.7 nM, a koff of 0.00053 s⁻¹ and a kon of 110000 M⁻¹ s⁻¹. For the same molecule, in test [2], the equilibrium dissociation constant (Kd) is below 50 nM.

Source of the values: patent US11021532.
